The record followed here is patent publication US20210332382A1.

The first assay concerns the target Adenovirus delta 24, serotype 5 virus with a modified knob from serotype 3 adenovirus (AdV 5/3), whole virus particles. In words: MP-SPR, peptide over AdV on APTES sensor, water, Min (after flush, no peptide in solution).
As for KKKKKKVFGIELMEVDPIGHLYIFAT [PEP1455 = KKKKKK-… (6K-MAGE-A3 peptide, MAGE-A3 161-180 with a 6-lysine tail at the amino terminus)], the Adsorbed Peptides SPR response was 0.0674 Δ°, the Mass Peptide amounted to 0.32 ng, the Mass/Area Peptide amounted to 40.4 ng/cm^2 and the Moles peptide worked out at 1.05e-13 mol.
For KKKKKKYLAMPFATPMEAELARRSLA the same measures were 0.0184 Δ°, 0.09 ng, 11 ng/cm^2 and 2.88e-14 mol.
For KKKKKKKKKVFGIELMEVDPIGHLYIFAT [PEP1456 = …-… (9K-MAGE-A3 peptide, MAGE-A3 161-180 with a 9-lysine tail at the amino terminus)], in that order: 0.029 Δ°, 0.14 ng, 17.4 ng/cm^2 and 4e-14 mol.

A further assay shares this target. In words: MP-SPR, peptide over AdV on APTES sensor, water, Max (100 µM peptide in solution).
Take KKKKKKVFGIELMEVDPIGHLYIFAT [PEP1455 = KKKKKK-… (6K-MAGE-A3 peptide, MAGE-A3 161-180 with a 6-lysine tail at the amino terminus)]: the Adsorbed Peptides SPR response is 0.153 Δ°, the Mass Peptide amounted to 0.72 ng, the Mass/Area Peptide was 91.9 ng/cm^2 and the Moles peptide is 2.38e-13 mol.
Turning to KKKKKKYLAMPFATPMEAELARRSLA, the Adsorbed Peptides SPR response is 0.0386 Δ°, the Mass Peptide worked out at 0.18 ng, the Mass/Area Peptide stood at 23.2 ng/cm^2 and the Moles peptide was determined as 6.05e-14 mol.
For KKKKKKKKKVFGIELMEVDPIGHLYIFAT [PEP1456 = …-… (9K-MAGE-A3 peptide, MAGE-A3 161-180 with a 9-lysine tail at the amino terminus)] the same measures were 0.13 Δ°, 0.61 ng, 78.2 ng/cm^2 and 1.8e-13 mol.

The target is the same in a further assay. In words: MP-SPR, peptide over AdV on APTES sensor, A195 buffer, Max (100 µM peptide in solution).
For KKKKKKVFGIELMEVDPIGHLYIFAT [PEP1455 = KKKKKK-… (6K-MAGE-A3 peptide, MAGE-A3 161-180 with a 6-lysine tail at the amino terminus)], the Adsorbed Peptides SPR response was 0.078 Δ°, the Mass Peptide came out at 0.37 ng, the Mass/Area Peptide is 46.8 ng/cm^2 and the Moles peptide turned out to be 1.21e-13 mol.
For KKKKKKYLAMPFATPMEAELARRSLA, in that order: 0.044 Δ°, 0.21 ng, 26.4 ng/cm^2 and 6.89e-14 mol.
For KKKKKKKKKVFGIELMEVDPIGHLYIFAT [PEP1456 = …-… (9K-MAGE-A3 peptide, MAGE-A3 161-180 with a 9-lysine tail at the amino terminus)], in that order: 0.371 Δ°, 1.75 ng, 223 ng/cm^2 and 5.12e-13 mol.

A further assay has the same target. In words: MP-SPR, peptide over AdV on APTES sensor, A195 buffer, Min (after flush, no peptide in solution).
Consider KKKKKKVFGIELMEVDPIGHLYIFAT [PEP1455 = KKKKKK-… (6K-MAGE-A3 peptide, MAGE-A3 161-180 with a 6-lysine tail at the amino terminus)], for which the Adsorbed Peptides SPR response was 0.0174 Δ°, the Mass Peptide is 0.08 ng, the Mass/Area Peptide stood at 10.4 ng/cm^2 and the Moles peptide was found to be 2.7e-14 mol.
With KKKKKKYLAMPFATPMEAELARRSLA, the Adsorbed Peptides SPR response was 0.012 Δ°, the Mass Peptide came out at 0.06 ng, the Mass/Area Peptide was determined as 7.2 ng/cm^2 and the Moles peptide was 1.88e-14 mol.
For KKKKKKKKKVFGIELMEVDPIGHLYIFAT [PEP1456 = …-… (9K-MAGE-A3 peptide, MAGE-A3 161-180 with a 9-lysine tail at the amino terminus)], in that order: 0.276 Δ°, 1.3 ng, 166 ng/cm^2 and 3.81e-13 mol.
